{
  "source": "patent US10597674B2",
  "about": "“HPPD variants and methods of use” (BASF Agricultural Solutions Seed, US LLC, priority 2015, dated 2020)",
  "molecules": {"B1": {"name": "87 (protein)", "chain": "MADLYENPMGLMGFEFIEFASPTPGTLEPIFEIMGFTKVATHRSKNVHLYRQGEINLILNNEPNSIASYFAAEHGPSVCGMAFRVKDSQKAYNRALELGAQPIHIDTGPMELNLPAIKGIGGAPLYLIDRFGEGSSIYDIDFVYLEGVERNPVGAGLKVIDHLTHNVYRGRMVYWANFYEKLFNFREARYFDIKGEYTGLTSKAMSAPDGMIRIPLNEESSKGAGQIEEFLMQFNGEGIQHVAFLTDDLVKTWDALKKIGMRFMTAPGDEYYEMLEGRLPDHGEPVDQLQARGILLDGSSVEGDKRLLLQIFSETLMGPVFFEFIQRKGDDGFGPDSFKVLFESAERDQVRRGVLTAD", "modifications": "mutant HPPD polypeptide"}, "B2": {"name": "76 (protein)", "chain": "B1 chain with E270R, A345V", "modifications": "mutant HPPD polypeptide"}, "B3": {"name": "83 (protein)", "chain": "B1 chain with V340G, A345V", "modifications": "mutant HPPD polypeptide"}, "B4": {"name": "67 (protein)", "chain": "B1 chain with M264K, A345V", "modifications": "mutant HPPD polypeptide"}, "B5": {"name": "73 (protein)", "chain": "B1 chain with G268S, A345V", "modifications": "mutant HPPD polypeptide"}, "B6": {"name": "92 (protein)", "chain": "B1 chain with M264R, D330H", "modifications": "mutant HPPD polypeptide"}, "B7": {"name": "77 (protein)", "chain": "B1 chain with E270S, A345V", "modifications": "mutant HPPD polypeptide"}, "B8": {"name": "44 (protein)", "chain": "B1 chain with R213L, A345V", "modifications": "mutant HPPD polypeptide"}, "B9": {"name": "88 (protein)", "chain": "B1 chain with A345I", "modifications": "mutant HPPD polypeptide"}, "B10": {"name": "40 (protein)", "chain": "B1 chain with A204M, A345V", "modifications": "mutant HPPD polypeptide"}, "B11": {"name": "56 (protein)", "chain": "B1 chain with K339R, A345V", "modifications": "mutant HPPD polypeptide"}, "B12": {"name": "89 (protein)", "chain": "B1 chain with A345K", "modifications": "mutant HPPD polypeptide"}, "B13": {"name": "46 (protein)", "chain": "B1 chain with T315M, A345V", "modifications": "mutant HPPD polypeptide"}, "B14": {"name": "39 (protein)", "chain": "B1 chain with A204L, A345V", "modifications": "mutant HPPD polypeptide"}, "B15": {"name": "57 (protein)", "chain": "B1 chain with K339T, A345V", "modifications": "mutant HPPD polypeptide"}, "B16": {"name": "52 (protein)", "chain": "B1 chain with D331S, A345V", "modifications": "mutant HPPD polypeptide"}, "B17": {"name": "81 (protein)", "chain": "B1 chain with V340A, A345V", "modifications": "mutant HPPD polypeptide"}, "B18": {"name": "72 (protein)", "chain": "B1 chain with G268R, A345V", "modifications": "mutant HPPD polypeptide"}},
  "note": "Residue numbers refer to the chain shown, from its start.",
  "data": [
    {"test_system": "E. coli cells expressing an HPPD polypeptide", "assay": "Brown color bioassay in liquid culture, residual brown color formation (BCF), OD440 after 96 hours", "format": "cell-based", "conditions": "brown color formation in absence of Cmpd. 1, culture supernatant after 96 hours, 5 mM HPP", "protocol": "(§1) In an additional experiment, mutant HPPD polypeptides were analyzed using the principle of a colorimetric brown color assay (as, for example, described in U.S. Pat. No. 6,768,044). Bacterial cells expressing the HPPD polypeptides according to this invention were assayed in 96 well plate format (Nunc® 96 DeepWell™ plate, Sigma-Aldrich, St. Louis, USA) for HPPD polypeptides with improved HPPD inhibitor herbicide tolerance.\n(§2) E. coli cells were grown in liquid LB medium (Carl Roth GmbH+Co. KG, Karlsruhe, Germany) containing the selection agent for the expression vector pSE420(RI)NX (WO2014/043435) and 5 mM para-hydroxyphenylpyruvate (HPP; Sigma-Aldrich, St. Louis, USA), in the presence of absence of the HPPD inhibitor herbicide e.g. Cmpd. 1 (1000 μM). An overnight culture of E. coli culture expressing one of the respective HPPD polypeptides according to this invention were adjusted to an OD600 of 0.3-0.5 in a final volume of 500 μL and incubated at 30 degree Celsius. Residual brown color formation was determined by measuring the brown color formation (BCF) in the presence and absence of Cmpd. […] Therefore, after 96 hours the culture was centrifuged and the supernatant of the culture was used to measure the optical density of the soluble brown pigment formation at 440 nm (OD440 nm).", "values": [
      {"molecule": "B1", "Control BCF OD440nm": 1.91},
      {"molecule": "B2", "Control BCF OD440nm": 2.73},
      {"molecule": "B3", "Control BCF OD440nm": 1.83},
      {"molecule": "B4", "Control BCF OD440nm": 1.93},
      {"molecule": "B5", "Control BCF OD440nm": 2.75},
      {"molecule": "B6", "Control BCF OD440nm": 1.38},
      {"molecule": "B7", "Control BCF OD440nm": 2.57},
      {"molecule": "B8", "Control BCF OD440nm": 1.60},
      {"molecule": "B9", "Control BCF OD440nm": 2.21},
      {"molecule": "B10", "Control BCF OD440nm": 1.89},
      {"molecule": "B11", "Control BCF OD440nm": 1.98},
      {"molecule": "B12", "Control BCF OD440nm": 2.36},
      {"molecule": "B13", "Control BCF OD440nm": 2.47},
      {"molecule": "B14", "Control BCF OD440nm": 1.63},
      {"molecule": "B15", "Control BCF OD440nm": 1.39},
      {"molecule": "B16", "Control BCF OD440nm": 2.08},
      {"molecule": "B17", "Control BCF OD440nm": 2.05},
      {"molecule": "B18", "Control BCF OD440nm": 2.77}
    ]},
    {"test_system": "E. coli cells expressing an HPPD polypeptide", "assay": "Brown color bioassay in liquid culture, residual brown color formation (BCF), OD440 after 96 hours", "format": "cell-based", "conditions": "brown color formation with Cmpd. 1 (1000 μM) relative to without, after 96 hours", "protocol": "as §1, §2", "units": {"Residual BCF OD440nm [%]": "%"}, "values": [
      {"molecule": "B1", "Residual BCF OD440nm [%]": 68},
      {"molecule": "B2", "Residual BCF OD440nm [%]": 58},
      {"molecule": "B3", "Residual BCF OD440nm [%]": 47},
      {"molecule": "B4", "Residual BCF OD440nm [%]": 71},
      {"molecule": "B5", "Residual BCF OD440nm [%]": 72},
      {"molecule": "B6", "Residual BCF OD440nm [%]": 59},
      {"molecule": "B7", "Residual BCF OD440nm [%]": 67},
      {"molecule": "B8", "Residual BCF OD440nm [%]": 40},
      {"molecule": "B9", "Residual BCF OD440nm [%]": 77},
      {"molecule": "B10", "Residual BCF OD440nm [%]": 58},
      {"molecule": "B11", "Residual BCF OD440nm [%]": 68},
      {"molecule": "B12", "Residual BCF OD440nm [%]": 67},
      {"molecule": "B13", "Residual BCF OD440nm [%]": 66},
      {"molecule": "B14", "Residual BCF OD440nm [%]": 55},
      {"molecule": "B15", "Residual BCF OD440nm [%]": 46},
      {"molecule": "B16", "Residual BCF OD440nm [%]": 65},
      {"molecule": "B17", "Residual BCF OD440nm [%]": 39},
      {"molecule": "B18", "Residual BCF OD440nm [%]": 72}
    ]},
    {"test_system": "HPPD polypeptides (wild-type SEQ ID NO:1 and mutants)", "assay": "not given", "conditions": "kapp in presence of 50 μM Cmpd. 1, normalised to kapp without inhibitor; low substrate concentration", "protocol": "(§3) For the generation of crude HPPD polypeptide extract in micro titer plates (MTP) for the determination of residual activity in inhibition assays, cells were grown in 40 or 150 μl LB medium containing 1% Glucose (Merck, Darmstadt, Germany) and 100 μg/ml ampicillin in a standard 96 well plate (Thermo Fisher Scientific, Waltham, USA) incubated for about 18 h in a humidity incubator at 37° C.\n(§4) 30 μl of this starter culture were added to 600 μl LB medium containing 100 μg/ml ampicillin and 150 mM Hepes (Merck, Darmstadt, Germany) as inoculum for the expression culture in 96 well plates (2 ml deep wells; HJ Bioanalytik, Erkelenz, Germany) The plates were sealed by an aluminium foil, and cells were incubated for 5 h at 37° C. on a plate shaker at 750 rpm. The expression was induced by addition of IPTG in a final concentration of 1 mM followed by further sealed incubation for about 18 h at 30° C. on a plate shaker at 750 rpm.\n(§5) Cells were harvested by centrifugation at 4° C., 2500 g for 15 min discarding the supernatant. Cell pellets were stored at −80° C. and lysed in 250 μl 1× BugBuster® (Merck, Darmstadt, Germany) in 140 mM Tris (pH 7.8), with 1:25000 diluted BNase® (Qiagen, Hilden, Germany) by incubation of the resuspended cells for 30 min at 4° C. and 1000 rpm. Lysates were clarified by centrifugation for 15 min at 4° C., 2500 g, and 150 μl supernatant were transferred in standard 96 well plate (Thermo Fisher Scientific, Waltham, USA) for subsequent testing in quadruplets.\n(§6) The activity of HPPD polypeptides was determined in absence or presence of HPPD inhibitors using the coupled HPPD activity assay (FIG. 1).\n(§7) For the determination of the residual activity, the apparent kinetic constant (kapp) of the determined substrate conversion was measured as kinetic changes in absorbance at 320 nm in a coupled assay, in that homogentisate (HGA) formed by HPPD from HPP is directly converted into the well absorbing molecule maleylacetoacetate (MAA) by a second enzyme homogentisate dioxygenase (HGD), applied in excess uniformly in all assays (see FIG. 1). The measurements were performed in 384 micro titer plates (Greiner Bio-One GmbH, Frickenhausen, Germany) by plate readers (Tecan infinite M1000 or M1000PRO, Tecan, Männedorf, Switzerland). The kcat/kM ratio of an enzymatic activity is proportional to the apparent kinetic constant kapp and is proportional to kcat/kM*[E] ([E]=enzyme concentration). […] As both kapp measurements in the presence and absence of inhibitor were performed by use of the identical enzyme sample, crude or purified, and thereby at the same enzyme concentration, the enzyme concentration eliminates from the calculation of residual activity and the ratio of both kapp directly indicates the change of kM due to the inhibition.", "units": {"Residual activity": "%"}, "values": [
      {"molecule": "B1", "Residual activity": 17},
      {"molecule": "B2", "Residual activity": 19},
      {"molecule": "B3", "Residual activity": 53},
      {"molecule": "B4", "Residual activity": 73},
      {"molecule": "B5", "Residual activity": 29},
      {"molecule": "B6", "Residual activity": 61},
      {"molecule": "B7", "Residual activity": 19},
      {"molecule": "B8", "Residual activity": 58},
      {"molecule": "B9", "Residual activity": 20},
      {"molecule": "B10", "Residual activity": 65},
      {"molecule": "B11", "Residual activity": 27},
      {"molecule": "B12", "Residual activity": 23},
      {"molecule": "B13", "Residual activity": 32},
      {"molecule": "B14", "Residual activity": 34},
      {"molecule": "B15", "Residual activity": 33},
      {"molecule": "B16", "Residual activity": 31},
      {"molecule": "B17", "Residual activity": 17},
      {"molecule": "B18", "Residual activity": 25}
    ]},
    {"test_system": "HPPD polypeptides (wild-type SEQ ID NO:1 and mutants)", "assay": "not given", "conditions": "total change in signal in presence of 50 μM Cmpd. 1, normalised to that without inhibitor; low substrate concentration", "protocol": "as §3, §4, §5, §6, §7", "units": {"Residual turnover": "%"}, "values": [
      {"molecule": "B1", "Residual turnover": 53},
      {"molecule": "B2", "Residual turnover": 50},
      {"molecule": "B3", "Residual turnover": 87},
      {"molecule": "B4", "Residual turnover": 96},
      {"molecule": "B5", "Residual turnover": 58},
      {"molecule": "B6", "Residual turnover": 81},
      {"molecule": "B7", "Residual turnover": 44},
      {"molecule": "B8", "Residual turnover": 78},
      {"molecule": "B9", "Residual turnover": 44},
      {"molecule": "B10", "Residual turnover": 77},
      {"molecule": "B11", "Residual turnover": 59},
      {"molecule": "B12", "Residual turnover": 43},
      {"molecule": "B13", "Residual turnover": 59},
      {"molecule": "B14", "Residual turnover": 61},
      {"molecule": "B15", "Residual turnover": 68},
      {"molecule": "B16", "Residual turnover": 57},
      {"molecule": "B17", "Residual turnover": 51},
      {"molecule": "B18", "Residual turnover": 55}
    ]}
  ]
}
